First the molecules themselves.
B1: GPC3 ERY22-dBBDu_189/L119 (bispecific antibody, human IgG1, kappa, L234A L235A, N297A)
heavy 1: DIVMTQSPLSLPVTPGEPASISCRSSQSLVHSNRNTYLHWYQQKPGQAPRLLIYKVSNRFSGVPDRFSGSGSGTDFTLKISRVEAEDVGVYYCSQNTHVPPTFGQGTKLEIKSSASTKGPSVFPLAPSSKSTSGGTAALGCLVKDYFPEPVTVSWNSGALTSGVHTFPAVLQSSGLYSLSSVVTVPSSSLGTQTYICNVNHKPSNTKVDKKVEPKSCDKTHTCPPCPAPEAAGGPSVFLFPPKPKDTLMISRTPEVTCVVVDVSHEDPEVKFNWYVDGVEVHNAKTKPREEQYASTYRVVSVLTVLHQDWLNGKEYKCKVSNKALPAPIEKTISKAKGQPREPQVCTLPPSRDELTKNQVSLWCLVKGFYPSDIAVEWESNGQPENNYKTTPPVLDSDGSFFLYSKLTVDKSRWQQGNVFSCSVMHEALHNHYTQKSLSLSPHHHHHHHH
light 1: QVQLVQSGAEVKKPGASVKVSCKASGYTFTDYEMHWIRQPPGQGLEWIGAIDPKTGDTAYSQKFKGRVTLTADKSTSTAYMELSSLTSEDTAVYYCTRFYSYTYWGQGTLVTVSSASVAAPSVFIFPPSDEQLKSGTASVVCLLNNFYPREAKVQWKVDNALQSGNSQESVTEQDSKDSTYSLSSTLTLSKADYEKHKVYACEVTHQGLSSPVTKSFNRGEC
heavy 2: QVQLVESGGGLVQPGRSLRLSCAASGFTFSNAWMHWVRQAPGKGLEWIAQIKDRSNQYATYYAPSVKGRFTISRDDSKNSIYLQMNSLKTEDTAVYYCHYVHYAQASSLLPSFGVDAWGQGTTVTVSSASTKGPSVFPLAPSSKSTSGGTAALGCLVKDYFPEPVTVSWNSGALTSGVHTFPAVLQSSGLYSLSSVVTVPSSSLGTQTYICNVNHKPSNTKVDKKVEPKSCDKTHTCPPCPAPEAAGGPSVFLFPPKPKDTLMISRTPEVTCVVVDVSHEDPEVKFNWYVDGVEVHNAKTKPREEQYASTYRVVSVLTVLHQDWLNGKEYKCKVSNKALPAPIEKTISKAKGQPREPQVYTLPPSRCELTKNQVSLSCAVKGFYPSDIAVEWESNGQPENNYKTTPPVLDSDGSFFLVSKLTVDKSRWQQGNVFSCSVMHEALHNHYTQKSLSLSPDYKDDDDK
light 2: DIVMTQSPLSLPVTPGEPASISCTASQELVHINRFIFLHWYQQKPGQAPRLLIYKVSNRFIGVPDRFSGSGSGTDFTLKISRVEAEDVGVYYCAQGSQVPFTFGQGTKLEIKRTVAAPSVFIFPPSDEQLKSGTASVVCLLNNFYPREAKVQWKVDNALQSGNSQESVTEQDSKDSTYSLSSTLTLSKADYEKHKVYACEVTHQGLSSPVTKSFNRGEC
B2: H183/L072 (antibody, V domains shown)
VH: QVQLVESGGGLVQPGRSLRLSCAASGFTFSNAWMHWVRQAPGKGLEWVAQIKDKGNAYAAYYAPSVKGRFTISRDDSKNSIYLQMNSLKTEDTAVYYCHYVHYASASTVLPAFGVDAWGQGTTVTVSS
VL: DIVMTQSPLSLPVTPGEPASISCQASQELVHMNRNTYLHWYQQKPGQAPRLLIYKVSNRFPGVPDRFSGSGSGTDFTLKISRVEAEDVGVYYCAQGTSVPFTFGQGTKLEIK
notes: Dual-Fab antibody (Dual-Ig), bivalent IgG; also called parental Dual-Fab H183L072; dBBDu183H/dBBDu072L
B3: H2594L0581 (antibody, V domains shown)
VH: QVQLVESGGGLVQPGRSLRLSCAASGFKFSNVWFHWVRQAPGKGLEWVAQIKDYYNAYAGYYHPSVKGRFTISRDDSKNSIYLQMNSLKTEDTAVYYCHYVHYAAASQLLPAEGVDAWGQGTTVTVSS
VL: B2 VL with A25P, L29V, V99H
notes: Dual-Ig, IgG; also called H2594L581; dBBDu183H2594/dBBDu072L0581
B4: H1649L0943 (antibody, V domains shown)
VH: B3 VH with K28V, Y54K, G60D, H63A, G68E, A105S, Q108T
VL: B2 VL with A25P, Q27E, L29V, R59L, S98H, V99H
notes: Dual-Ig, IgG; also called dBBDu183H1649/dBBDu072L0943
B5: H1673L0581 (antibody, V domains shown)
VH: B3 VH with K28V, Y54K, Y55W, G60D, H63A, G68E, V101I, A105S, Q108T, V115I
VL: B2 VL with A25P, L29V, V99H
notes: Dual-Ig, IgG; also called dBBDu183H1673/dBBDu072L0581
B6: H2591L0581 (antibody, V domains shown)
VH: B3 VH with Q108T
VL: B2 VL with A25P, L29V, V99H
notes: Dual-Ig, IgG; also called H2591L581; dBBDu183H2591/dBBDu072L0581
B7: H1673L0943 (antibody, V domains shown)
VH: B3 VH with K28V, Y54K, Y55W, G60D, H63A, G68E, V101I, A105S, Q108T, V115I
VL: B2 VL with A25P, Q27E, L29V, R59L, S98H, V99H
notes: Dual-Ig, IgG; also called dBBDu183H1673/dBBDu072L0943
B8: H1610L0939 (antibody, V domains shown)
VH: B2 VH with T28V, A32V, G55W, V101I, V109L, F113E, V115I
VL: B2 VL with A25P, L29V, R59V, S98H, V99H
notes: Dual-Ig, IgG; also called H1610L939; dBBDu183H1610/dBBDu072L0939
B9: H0868L0581 (antibody, V domains shown)
VH: B2 VH with T28K, A32V, G55Y, V109L
VL: B2 VL with A25P, L29V, V99H
notes: Dual-Ig, IgG; also called H868L581; dBBDu183H0868/dBBDu072L0581
B10: H1550L0918 (antibody, V domains shown)
VH: B2 VH with T28K, A32V, G55Y, V101I, V109L
VL: B2 VL with A25P, L29V, R34N, N35V, T36V, V99H
notes: Dual-Ig, IgG; also called H1550L918; dBBDu183H1550/dBBDu072L0918
B11: H1610L0581 (antibody, V domains shown)
VH: B2 VH with T28V, A32V, G55W, V101I, V109L, F113E, V115I
VL: B2 VL with A25P, L29V, V99H
notes: Dual-Ig, IgG; also called H1610L581; dBBDu183H1610/dBBDu072L0581
B12: H1571L0581 (antibody, V domains shown)
VH: B3 VH with Y54K, G60T, H63A, A105S, Q108T, E113F
VL: B2 VL with A25P, L29V, V99H
notes: Dual-Ig, IgG; also called dBBDu183H1571/dBBDu072L0581
B13: H1649L0581 (antibody, V domains shown)
VH: B3 VH with K28V, Y54K, G60D, H63A, G68E, A105S, Q108T
VL: B2 VL with A25P, L29V, V99H
notes: Dual-Ig, IgG; also called dBBDu183H1649/dBBDu072L0581
B14: H1643L0581 (antibody, V domains shown)
VH: B3 VH with G60A, H63A, A105S, Q108T
VL: B2 VL with A25P, L29V, V99H
notes: Dual-Ig, IgG; also called H1643L581; dBBDu183H1643/dBBDu072L0581
B15: H1651L0581 (antibody, V domains shown)
VH: B3 VH with K28V, Y54K, G60D, H63A, K67E, A105S, Q108T
VL: B2 VL with A25P, L29V, V99H
notes: Dual-Ig, IgG; also called dBBDu183H1651/dBBDu072L0581
B16: H1652L0943 (antibody, V domains shown)
VH: B3 VH with K28V, G60D, H63A, K67E, A105S, Q108T
VL: B2 VL with A25P, Q27E, L29V, R59L, S98H, V99H
notes: Dual-Ig, IgG; also called dBBDu183H1652/dBBDu072L0943
B17: H1647L0581 (antibody, V domains shown)
VH: B3 VH with V32T, A57D, G60A, H63A, A105S, Q108T
VL: B2 VL with A25P, L29V, V99H
notes: Dual-Ig, IgG; also called dBBDu183H1647/dBBDu072L0581

This note sets out measurements from US20210388087A1 (Chugai, published 2021).

Substitutions are numbered along the chain they refer to.

T2 sequence (chain, as listed by the source limits assumed): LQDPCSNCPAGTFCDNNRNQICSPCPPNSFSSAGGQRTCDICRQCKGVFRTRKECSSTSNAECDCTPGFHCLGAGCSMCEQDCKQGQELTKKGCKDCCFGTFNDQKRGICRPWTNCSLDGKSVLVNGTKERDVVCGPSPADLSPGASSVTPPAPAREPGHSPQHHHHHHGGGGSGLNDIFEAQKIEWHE

For the first experiment, the target named is human CD137 on HDLM-2 cells (human, UniProt Q07011 24-255). As to the kind of experiment: cell-based or functional assay.
Chain of human CD137 on HDLM-2 cells (Q07011 24-255): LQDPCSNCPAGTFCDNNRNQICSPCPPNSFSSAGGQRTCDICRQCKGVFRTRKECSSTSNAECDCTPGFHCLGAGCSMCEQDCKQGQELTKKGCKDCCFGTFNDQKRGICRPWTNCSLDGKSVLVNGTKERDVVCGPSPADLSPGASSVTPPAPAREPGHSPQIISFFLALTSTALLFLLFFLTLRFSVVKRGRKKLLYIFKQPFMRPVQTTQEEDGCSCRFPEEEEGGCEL
For the molecule B1, the “Agonistic activity compared to B, antibody 6 ug/mL” value was 6.92%; the “Agonistic activity compared to B, antibody 30 ug/mL” value came out at 20.4%; the “Agonistic activity compared to Ctrl, antibody 6 ug/mL” value worked out at 24%; the “Agonistic activity compared to Ctrl, antibody 30 ug/mL” value was found to be 77.3%. For the same molecule, the “hIL-6 (pg/mL), antibody 6 ug/mL” value stood at 1260 pg/mL and the “hIL-6 (pg/mL), antibody 30 ug/mL” value was 1610 pg/mL.

A further experiment deals with T1, Human CD3eg linker (human).
T1 construct: Single chain: CD3 epsilon and gamma subunits joined by a 29-mer linker, Flag-tag at the C-terminus; also called recombinant human CD3
T1 chain: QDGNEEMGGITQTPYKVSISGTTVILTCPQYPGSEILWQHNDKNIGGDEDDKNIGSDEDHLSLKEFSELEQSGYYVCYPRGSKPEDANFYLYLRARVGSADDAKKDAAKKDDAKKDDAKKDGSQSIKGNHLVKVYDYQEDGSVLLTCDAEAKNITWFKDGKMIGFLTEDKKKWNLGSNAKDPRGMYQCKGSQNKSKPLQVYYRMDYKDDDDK
Description: SPR Biacore T200, 25 C, Ab captured on anti-human Fc, antigen as analyte. (SPR reads the build-up and loss of mass on a sensor chip optically.)
Description: (§1) Binding affinity of Dual-Fab antibodies (Dual-Ig) to human CD3 were assessed at 25 degrees C. using Biacore T200 instrument (GE Healthcare). Anti-human Fc (GE Healthcare) was immobilized onto all flow cells of a CM4 sensor chip using amine coupling kit (GE Healthcare). Antibodies were captured onto the anti-Fc sensor surfaces, then recombinant human CD3 or CD137 was injected over the flow cell. All antibodies and analytes were prepared in ACES pH 7.4 containing 20 mM ACES, 150 mM NaCl, 0.05% Tween 20, 0.005% NaN3. Sensor surface was regenerated each cycle with 3M MgCl2. […] CD137 binding affinity assay was conducted in same condition except assay temperature was set at 37 degrees C.
On to B2, for which binding was put at a Kd of 340 nM, the koff turned out to be 0.012 s⁻¹ and the kon was determined as 35400 M⁻¹ s⁻¹.
Turning to B3, the Kd came out at 593 nM, the koff came out at 0.0584 s⁻¹ and the kon amounted to 98300 M⁻¹ s⁻¹.
On to B4, for which binding was characterised by a dissociation constant (Kd) of 789 nM, the koff worked out at 0.0481 s⁻¹ and the kon worked out at 61000 M⁻¹ s⁻¹.
Take B5: the Kd amounted to 13.3 nM, the koff is 0.00106 s⁻¹ and the kon worked out at 79600 M⁻¹ s⁻¹.
In turn, B6 came in with a Kd of 525 nM, a koff of 0.0535 s⁻¹ and a kon of 102000 M⁻¹ s⁻¹.
In turn, B7 gave a Kd of 21 nM, a koff of 0.00116 s⁻¹ and a kon of 55000 M⁻¹ s⁻¹.
As to B8, the Kd turned out to be 50.7 nM, the koff was 0.00253 s⁻¹ and the kon was 50000 M⁻¹ s⁻¹.
In the same order, the values of B9 are 157 nM, 0.0194 s⁻¹ and 123000 M⁻¹ s⁻¹.
For the molecule B10, binding was characterised by a dissociation constant (Kd) of 43.8 nM, the koff was 0.00316 s⁻¹ and the kon was 72000 M⁻¹ s⁻¹.
Taken in the same sequence, the figures for B11 were 20.9 nM, 0.00142 s⁻¹ and 68000 M⁻¹ s⁻¹.
Taken in the same sequence, the figures for B12 were 110 nM, 0.0156 s⁻¹ and 142000 M⁻¹ s⁻¹.
As to B13, the Kd is 449 nM, the koff came out at 0.0336 s⁻¹ and the kon worked out at 75000 M⁻¹ s⁻¹.
Taken in the same sequence, the figures for B14 were 265 nM, 0.0251 s⁻¹ and 94600 M⁻¹ s⁻¹.
In the same order, the values of B15 are 517 nM, 0.0371 s⁻¹ and 71800 M⁻¹ s⁻¹.

The next experiment has as its target T2, Human CD137 ECD (human).
T2 construct: also called human CD137 extracellular domain; recombinant human CD137
Description: SPR Biacore T200, 37 C, Ab captured on anti-human Fc, antigen as analyte.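 Also: recombinant human CD137 flowed over antibodies held by amine-coupled anti-human Fc on a CM4 chip, run in ACES pH 7.4 buffer with 150 mM NaCl and 0.05% Tween 20.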
Description: as §1
B3: the affinity, expressed as Kd, was 78.1 nM; the koff is 0.00163 s⁻¹; the kon stood at 20900 M⁻¹ s⁻¹.
The molecule B4 returned a Kd of 32.8 nM, a koff of 0.000468 s⁻¹ and a kon of 14300 M⁻¹ s⁻¹.
Taken in the same sequence, the figures for B5 were 80.4 nM, 0.00096 s⁻¹ and 11900 M⁻¹ s⁻¹.
In the same order, the values of B6 are 36.3 nM, 0.000742 s⁻¹ and 20400 M⁻¹ s⁻¹.
Molecule B7 yielded a Kd of 59.1 nM, a koff of 0.000722 s⁻¹ and a kon of 12200 M⁻¹ s⁻¹.
Consider B16, for which the Kd worked out at 36.4 nM, the koff came to 0.00047 s⁻¹ and the kon worked out at 12900 M⁻¹ s⁻¹.
Taken in the same sequence, the figures for B8 were 61.8 nM, 0.000801 s⁻¹ and 13000 M⁻¹ s⁻¹.
In turn, B9 gave a Kd of 111 nM, a koff of 0.00136 s⁻¹ and a kon of 12200 M⁻¹ s⁻¹.
In the same order, the values of B17 are 64.8 nM, 0.000647 s⁻¹ and 9980 M⁻¹ s⁻¹.
B10 registered a Kd of 530 nM, a dissociation rate constant (koff) of 0.00579 s⁻¹ and a kon of 10900 M⁻¹ s⁻¹.
Taken in the same sequence, the figures for B11 were 103 nM, 0.0011 s⁻¹ and 10700 M⁻¹ s⁻¹.
Regarding B12, the dissociation constant Kd stood at 86.8 nM, the koff was 0.00105 s⁻¹ and the kon came out at 12100 M⁻¹ s⁻¹.
On to B13, for which the affinity, expressed as Kd, was 42.8 nM; the koff was 0.000553 s⁻¹; the kon came to 12900 M⁻¹ s⁻¹.
Consider B14, for which the Kd was found to be 49.4 nM, the koff is 0.000606 s⁻¹ and the kon was 12300 M⁻¹ s⁻¹.
With B15, the dissociation constant Kd was 43.2 nM, the koff was determined as 0.000603 s⁻¹ and the kon was 14000 M⁻¹ s⁻¹.

By Kd is commonly meant the free concentration of one partner at which half of the binding sites on the other are occupied at equilibrium, for simple one-to-one binding. A higher Kd goes with weaker binding. In general, koff refers to the rate constant with which the complex falls apart. Low readings indicate slow dissociation, high ones fast dissociation. As a reminder, the kon is the second-order rate constant of association.
